What was measured:
[1] = molecular target: His-ToxR (Vibrio parahaemolyticus RIMD2210633) (UniProt Q05938); assay: DNase I footprinting
[2] = molecular target: T1, His-OpaR (Vibrio parahaemolyticus RIMD2210633) (UniProt Q79YV4); assay: DNase I footprinting
T1 sequence: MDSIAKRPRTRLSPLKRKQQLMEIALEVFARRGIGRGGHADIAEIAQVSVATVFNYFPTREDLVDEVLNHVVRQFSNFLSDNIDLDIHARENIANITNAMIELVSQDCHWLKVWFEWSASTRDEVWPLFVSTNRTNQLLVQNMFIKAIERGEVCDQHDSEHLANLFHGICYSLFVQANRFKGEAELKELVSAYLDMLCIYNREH

UniProt Q05938, sequence (Q05938 1-176): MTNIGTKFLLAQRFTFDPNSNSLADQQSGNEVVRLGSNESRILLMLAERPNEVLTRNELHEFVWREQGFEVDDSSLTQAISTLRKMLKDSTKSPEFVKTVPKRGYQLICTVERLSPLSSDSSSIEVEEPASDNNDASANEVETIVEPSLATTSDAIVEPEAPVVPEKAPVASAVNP

Row | Sequence | binding [1] | binding [2]
1 | ACACTTTGCACTCTTTTATGGAACAAATATTATTAGACCGAAATAATATTTGCTGAAACATCCTTGTTTCAAGGGTAGTATTTAAAACGAACAGTAAGCCTATTATTTTAGTTATAATTACTAAGTTATTAGACTCTTTGACTTACGCTTTCACTACCTGAATTACGTTGTTTTAGAAATTAAAATTTCAACAACGTAATATGACTTCATTTTCATTATATATTTCGACAAAGAATGATTAGCACGC (double strand) [VP1400 footprinting fragment] | binds | binds
2 | CGCTTGGATTACTTTCATCGATCGGTCTTCTTGTGAAGTCGCTGAAAAACATAATGTTAAGTTCCAACTGAGTTGATAATAAAATAATAAAGATAGATTTTTTTATTGTATTCGCCTGCTATGCCAAATGACATGCAATGCATTTTTTCTGATTTTATAGATAAAAAAAGATTTTTAGACAATAAAAAGCCGATAAATCTAATTAAAATCCATTTTGTGTGATCTTTGTTCCTAAT (double strand) [VP1409 footprinting fragment(s)] | binds | binds
3 | ATTCTCCACAACCAACATCGTAAACATGGTTGCGGTGACGTTTAAGCTGATAAGGCTTACAAGTACGATTTGGTGTGCTAATGCTACTAATTTAATTCATAACATTCAATCACATAGAAAACTTCCAGAAAACCGAAATGCCCGAGAAATAACAAAACCACAGGTTATTTGGTTGTTTTAACTATCAATTCAAACTTATTACCCTTCAATCCAACTCAAAAGGCAGGCTTTAAGCAAAAACAGTTTTTTACTTTTGGGCAGAAGTTAACAAATTCAA (double strand) [VP1388 footprinting fragment] |  | binds

Reference: PMC5650642
